In this data set the target is p53 DBD WT (UniProt P04637 94-312). Description: EMSA; protein:DNA 1:1, 9:1, 454:1; binding kept 24 h to 1 month; EMSA on TBE gels; protein in 1X PBS, 1 mM TCEP, pH 7.4; DNA stocks in 50 mM Tris-HCl, 137 mM NaCl, pH 8.1; samples held at 4 C (0 hr) or incubated (37 C, 24 h for aggregation); full EMSA details not in material. The settings on record: protein: recombinant; tags: 6xHis-TEV (N-terminal); blunt. (In general: In EMSA bound probe runs differently from free probe, usually more slowly.)

We go through one molecule from paper doi:10.1101/2025.07.24.665437, “Consensus DNA Inhibits p53 Aggregation but Fails to Rescue Mutants”.

Sequence of p53 DBD WT (P04637 94-312): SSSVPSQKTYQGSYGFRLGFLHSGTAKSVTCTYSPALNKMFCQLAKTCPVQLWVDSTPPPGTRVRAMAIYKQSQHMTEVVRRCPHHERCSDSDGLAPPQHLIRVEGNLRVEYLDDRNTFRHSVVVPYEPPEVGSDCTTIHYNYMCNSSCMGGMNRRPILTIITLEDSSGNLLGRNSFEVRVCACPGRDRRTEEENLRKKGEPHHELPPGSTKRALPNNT

B1: p21-RE (dsDNA)
DNA 1: CGCGAACATGTCCCAACATGTTGCGC
DNA 2: GCGCAACATGTTGGGACATGTTCGCG
For the molecule B1, the binding result is given as “binds”.
